Measurements taken from patent US20110288001A1, “BIOLOGICALLY ACTIVE PROTEINS ACTIVATABLE BY PEPTIDASE” (priority 2008, published 2011).

Legend:
[1] = molecular target: human GLP1 receptor (human) (UniProt P43220); assay: cell-based or functional assay
[2] = in vivo; cited from earlier work
[3] = in vivo; cited from earlier work; remark: listed apart in the source
[4] = test system: PB0967, GLP1-ELP construct with Met-Ala-Ala at the N-terminus (Met removed by E. coli), not treated with DPP-IV

Chain of UniProt P43220 (P43220 24-463): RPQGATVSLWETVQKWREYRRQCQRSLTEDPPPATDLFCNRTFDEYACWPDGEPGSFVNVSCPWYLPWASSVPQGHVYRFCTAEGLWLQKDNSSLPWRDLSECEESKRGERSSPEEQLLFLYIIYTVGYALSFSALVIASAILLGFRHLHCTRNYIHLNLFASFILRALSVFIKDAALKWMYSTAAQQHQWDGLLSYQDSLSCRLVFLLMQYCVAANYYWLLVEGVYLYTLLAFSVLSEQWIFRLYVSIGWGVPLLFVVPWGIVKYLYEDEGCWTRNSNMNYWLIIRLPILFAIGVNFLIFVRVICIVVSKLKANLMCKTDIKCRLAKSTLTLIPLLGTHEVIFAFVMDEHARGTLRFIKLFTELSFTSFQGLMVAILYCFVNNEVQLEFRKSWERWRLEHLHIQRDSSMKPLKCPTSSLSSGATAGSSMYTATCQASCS

Exendin-4 peptide
EC50 in cAMP assay [1]: 1 nM

GLP-1: native glucagon-like peptide-1, physiological incretin originating from preproglucagon
plasma half-life (t1/2) [2]: 1 to 2 min

HSDAVFTDNYTRLRKQMAVKKYLNSILN [VIP]
half-life in the blood [3]: about two

dipeptidyl peptidase-4 (DPP-IV)
gain of cAMP activity of the substrate after DPP-IV treatment (enzyme processing) [4]: is activated if it is first treated with DPP-IV to remove the remaining Ala-Ala and expose the N-terminal His of GLP1
